Results: the Human Domainome abundance scans (Beltran et al. 2025)
± gives the uncertainty stated by the source.

B1: Gamma-crystallin D, residues 90 to 170; numbered along this chain, P07320 (parent)
chain: IRLYEREDYRGQMIEFTEDCSCLQDRFRFNEIHSLNVLEGSWVLYELSNYRGRQYLLMPGDYRRYQDWGATNARVGSLRRV

Variants of: B1
Assay: abundance fitness (aPCA) (normalised: wild type 0, dead -1); higher = more abundant; growth selection in yeast, the domain comes from the species named
Settings: Homo sapiens

Abundance fitness: each site, then its substitutions
Y45: P -0.553 ± 0.15; Q -0.395 ± 0.19; R -0.439 ± 0.072; S -0.157 ± 0.089; T -0.07 ± 0.097; V -0.88 ± 0.14
E46: A -0.083 ± 0.086; C -0.201 ± 0.1; F -0.197 ± 0.17; G -0.263 ± 0.068; H -0.161 ± 0.23; M -0.095 ± 0.15; N -0.343 ± 0.26; P -0.199 ± 0.096; Q -0.012 ± 0.11; R -0.273 ± 0.068; S -0.113 ± 0.1; T -0.047 ± 0.099; V -0.325 ± 0.082; W -0.783 ± 0.1; Y -0.626 ± 0.42
L47: A -0.037 ± 0.12; D 0.147 ± 0.14; E -0.12 ± 0.16; F 0.008 ± 0.2; G -0.027 ± 0.069; H -0.072 ± 0.21; I -0.16 ± 0.21; K -0.221 ± 0.38; M -0.162 ± 0.21; N -0.014 ± 0.49; P -0.989 ± 0.18; Q 0.084 ± 0.13; R 0.055 ± 0.058; S 0.074 ± 0.072; V -0.142 ± 0.077; W 0.048 ± 0.074; Y -0.183 ± 0.19
S48: C 0.009 ± 0.1; D 0.138 ± 0.12; E 0.208 ± 0.14; F -0.124 ± 0.12; G -0.049 ± 0.065; I -0.152 ± 0.15; K -0.017 ± 0.15; L -0.204 ± 0.087; M -0.166 ± 0.15; Q -0.191 ± 0.17; R -0.14 ± 0.073; T -0.134 ± 0.36; V -0.159 ± 0.078; Y -0.194 ± 0.27
N49: A -0.109 ± 0.076; E 0.054 ± 0.11; F -0.135 ± 0.19; G -0.074 ± 0.059; I -0.485 ± 0.21; K -0.086 ± 0.18; L 0.045 ± 0.094; M 0.008 ± 0.15; P -0.182 ± 0.11; Q 0.015 ± 0.12; R -0.107 ± 0.059; S -0.09 ± 0.082; T -0.561 ± 0.19; Y -0.03 ± 0.19
Y50: A -0.493 ± 0.094; C -0.44 ± 0.24; D -0.693 ± 0.17; G -0.231 ± 0.059; H -0.052 ± 0.3; I -0.658 ± 0.44; K -0.234 ± 0.21; L -0.383 ± 0.075; M -0.144 ± 0.14; N 0.003 ± 0.16; Q -0.197 ± 0.14; R -0.19 ± 0.081; S -0.501 ± 0.13; V -0.979 ± 0.19; W -0.283 ± 0.12
R51: A -0.024 ± 0.08; C -0.023 ± 0.14; D -0.027 ± 0.19; E 0.158 ± 0.14; F -0.147 ± 0.17; G 0.064 ± 0.079; H -0.122 ± 0.28; I -0.321 ± 0.21; K -0.037 ± 0.17; L 0.034 ± 0.075; N 0.139 ± 0.21; P -0.951 ± 0.19; Q -0.132 ± 0.15; S -0.039 ± 0.079; T 0.056 ± 0.12; V 0.025 ± 0.082; W -0.471 ± 0.12; Y -0.108 ± 0.31
G52: A -0.489 ± 0.072; C -0.421 ± 0.12; D -0.775 ± 0.25; E -0.493 ± 0.073; F -0.583 ± 0.47; H -0.43 ± 0.19; I -0.943 ± 0.32; K -0.849 ± 0.27; L -0.432 ± 0.1; M -0.57 ± 0.23; N -0.705 ± 0.31; Q -0.599 ± 0.23; R -0.51 ± 0.093; S -0.389 ± 0.08; T -1.07 ± 0.3; V -0.919 ± 0.13; W -0.697 ± 0.11
R53: A 0.068 ± 0.12; C -0.137 ± 0.15; E -0.046 ± 0.1; G 0.015 ± 0.064; H 0.062 ± 0.25; I -0.158 ± 0.18; K 0.038 ± 0.19; M -0.045 ± 0.099; P 0.039 ± 0.091; Q 0.085 ± 0.12; S 0.059 ± 0.092; V -0.056 ± 0.088; W -0.266 ± 0.11; Y 0.026 ± 0.24
Q54: A -0.119 ± 0.093; C -0.206 ± 0.11; D 0.007 ± 0.19; E 0.018 ± 0.14; G -0.203 ± 0.12; H -0.117 ± 0.14; I -0.245 ± 0.17; K -0.052 ± 0.13; L -0.149 ± 0.11; M -0.261 ± 0.11; P -0.036 ± 0.094; R -0.066 ± 0.12; S 0.013 ± 0.1; T 0.035 ± 0.11; V -0.193 ± 0.085; W -0.39 ± 0.11; Y -0.119 ± 0.26
Y55: C -0.061 ± 0.5; D -0.23 ± 0.18; E 0.241 ± 0.1; F -0.044 ± 0.18; G 0.017 ± 0.066; H -0.018 ± 0.27; I 0.298 ± 0.22; K 0.087 ± 0.12; L 0.107 ± 0.082; M -0.039 ± 0.18; P -1.07 ± 0.17; Q -0.006 ± 0.14; R 0.014 ± 0.081; S 0.126 ± 0.12; T 0.187 ± 0.14; V 0.082 ± 0.11; W -0.001 ± 0.11
L56: A 0.056 ± 0.075; C 0.048 ± 0.12; D 0.294 ± 0.2; E -0.024 ± 0.13; F 0.093 ± 0.17; G 0.016 ± 0.062; H 0.13 ± 0.091; I 0.114 ± 0.15; K 0.035 ± 0.13; M 0.279 ± 0.12; N 0.022 ± 0.28; P 0.124 ± 0.092; Q -0.054 ± 0.15; R 0.086 ± 0.071; S 0.14 ± 0.071; T 0.129 ± 0.11; V -0.027 ± 0.071; W 0.017 ± 0.07; Y -0.207 ± 0.15
L57: A -0.071 ± 0.12; C -0.029 ± 0.13; D -0.971 ± 0.39; E -0.91 ± 0.19; F -0.194 ± 0.23; H 0.049 ± 0.4; K -0.173 ± 0.3; M 0.029 ± 0.25; R -0.376 ± 0.11; T -0.016 ± 0.17; W -0.623 ± 0.13; Y -0.13 ± 0.18
M58: A 0.032 ± 0.065; C 0.074 ± 0.12; D 0.021 ± 0.13; E 0.043 ± 0.11; F -0.073 ± 0.17; G 0.093 ± 0.052; H 0.008 ± 0.18; I -0.047 ± 0.13; L 0.015 ± 0.087; N 0.037 ± 0.17; P 0.201 ± 0.11; Q 0.066 ± 0.12; R -0.02 ± 0.062; S 0.055 ± 0.072; T 0.125 ± 0.13; V 0.032 ± 0.063; W -0.118 ± 0.09; Y 0.174 ± 0.2
P59: A 0.088 ± 0.092; C 0.011 ± 0.15; D 0.14 ± 0.15; E -0.005 ± 0.1; F -0.353 ± 0.22; G 0.065 ± 0.076; H -0.052 ± 0.24; I -0.157 ± 0.38; K -0.118 ± 0.13; L -0.085 ± 0.082; M -0.037 ± 0.13; N -0.027 ± 0.15; Q 0.05 ± 0.13; R -0.088 ± 0.073; S -0.007 ± 0.079; V -0.099 ± 0.068; W -0.083 ± 0.12; Y -0.222 ± 0.34
G60: A -0.038 ± 0.069; D -0.08 ± 0.15; E 0.155 ± 0.09; F -0.188 ± 0.2; H -0.225 ± 0.2; K 0.029 ± 0.12; L -0.197 ± 0.064; M -0.128 ± 0.11; N -0.167 ± 0.34; P -0.702 ± 0.17; Q 0.001 ± 0.14; R -0.04 ± 0.055; S 0.064 ± 0.086; T -0.122 ± 0.14; W -0.133 ± 0.1; Y -0.176 ± 0.16
D61: E 0.043 ± 0.11; F -0.094 ± 0.15; G 0.004 ± 0.058; H -0.25 ± 0.36; I -0.332 ± 0.15; K -0.096 ± 0.17; L -0.093 ± 0.092; M -0.008 ± 0.14; N -0.016 ± 0.18; Q -0.038 ± 0.12; R -0.109 ± 0.085; S -0.027 ± 0.078; T -0.024 ± 0.18; V -0.07 ± 0.081; W -0.237 ± 0.12
Y62: A 0.153 ± 0.056; C 0.264 ± 0.15; D -0.904 ± 0.18; E -0.401 ± 0.085; F -0.147 ± 0.21; G -0.242 ± 0.064; H -0.076 ± 0.18; I -0.061 ± 0.3; K 0.11 ± 0.16; L 0.178 ± 0.068; M 0.096 ± 0.086; N -0.125 ± 0.14; P -0.919 ± 0.17; Q -0.301 ± 0.14; R 0.229 ± 0.06; S 0.016 ± 0.058; T -0.251 ± 0.093; V 0.041 ± 0.066; W 0.026 ± 0.094
R63: A 0.024 ± 0.065; C 0.097 ± 0.11; D 0.129 ± 0.21; E 0.09 ± 0.093; F 0.004 ± 0.17; I 0.113 ± 0.21; K 0.061 ± 0.13; L 0.088 ± 0.12; M 0.132 ± 0.29; N -0.079 ± 0.31; P -0.012 ± 0.09; Q 0.072 ± 0.15; S -0.037 ± 0.093; T 0.039 ± 0.11; W 0.031 ± 0.095
R64: A -0.019 ± 0.068; C -0.141 ± 0.11; D 0.167 ± 0.19; E -0.226 ± 0.15; F 0.04 ± 0.11; G -0.017 ± 0.078; K -0.287 ± 0.23; M -0.11 ± 0.17; N 0.159 ± 0.34; P -0.423 ± 0.12; Q -0.031 ± 0.12; T 0.063 ± 0.14; V -0.044 ± 0.075; W 0.095 ± 0.081; Y 0.035 ± 0.2
Y65: A -0.093 ± 0.084; C -0.144 ± 0.12; D 0.044 ± 0.11; E 0.192 ± 0.14; F -0.174 ± 0.15; G 0.159 ± 0.06; H 0.099 ± 0.16; I 0.053 ± 0.19; K -0.113 ± 0.11; L 0.093 ± 0.087; M 0.089 ± 0.17; N 0.096 ± 0.15; P 0.051 ± 0.11; Q -0.028 ± 0.18; S 0.041 ± 0.099; T -0.076 ± 0.16; V -0.047 ± 0.083; W 0.005 ± 0.14
Q66: C -0.067 ± 0.14; D -0.14 ± 0.12; E -0.022 ± 0.13; F -0.004 ± 0.15; G 0.038 ± 0.053
